The results in this text go back to US20160272683A1 (Novo Nordisk, published 2016).

Numbered stars: 1 amine (or outer) side, 2 acyl side, 3 side chain; on linkers, the order of the positions; unused ones are H or OH. * marks the point of attachment. C20 diacid = O=C(O)CCCCCCCCCCCCCCCCCCC(=O)*; γGlu = O=C(O)[C@H](CCC(=O)[*:2])N[*:1]

In test [1] the target is T1, human amylin 3(a) receptor (human calcitonin receptor co-expressed with RAMP-3) on BHK570/CRE-luc cells (human, UniProt P30988 25-474; O60896 24-148).
T1 sequence (looked up) 1: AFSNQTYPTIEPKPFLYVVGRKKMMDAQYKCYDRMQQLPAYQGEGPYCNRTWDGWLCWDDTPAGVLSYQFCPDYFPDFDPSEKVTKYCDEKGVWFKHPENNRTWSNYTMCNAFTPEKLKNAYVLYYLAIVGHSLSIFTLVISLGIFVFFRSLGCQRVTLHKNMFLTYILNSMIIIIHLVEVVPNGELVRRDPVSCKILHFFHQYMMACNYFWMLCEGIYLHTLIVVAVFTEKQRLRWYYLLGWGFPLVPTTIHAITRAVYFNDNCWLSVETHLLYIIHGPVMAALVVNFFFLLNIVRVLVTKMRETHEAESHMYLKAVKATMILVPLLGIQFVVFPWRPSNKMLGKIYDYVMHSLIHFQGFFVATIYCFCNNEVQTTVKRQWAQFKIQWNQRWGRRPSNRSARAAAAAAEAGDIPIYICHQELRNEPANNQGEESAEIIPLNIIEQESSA
T1 sequence (looked up) 2: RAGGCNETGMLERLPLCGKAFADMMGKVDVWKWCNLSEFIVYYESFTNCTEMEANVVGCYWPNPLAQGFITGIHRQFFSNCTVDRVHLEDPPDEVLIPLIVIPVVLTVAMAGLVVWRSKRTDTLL
The test is described as follows: cell-based or functional assay.

Test [2] concerns the target T2, human calcitonin receptor on BHK570/CRE-luc cells (human, UniProt P30988 25-474).
T2 sequence (looked up): T1 sequence (looked up) 1
Kind of test: cell-based or functional assay.

B1: [N-terminal(C20 diacid-gGlu), des1, 4G, 15E, 21Q, 23Y, 30S, 31G, 32T, 33Y]mimylin (peptide)
peptide: {C20 diacid-γGlu}-ASGLSTAALGRLSEELHELQTYPRTETGSGTY-NH2
SMILES: CC(C)C[C@H](NC(=O)CNC(=O)[C@H](CO)NC(=O)[C@H](C)NC(=O)CC[C@H](NC(=O)CCCCCCCCCCCCCCCCCCC(=O)O)C(=O)O)C(=O)N[C@@H](CO)C(=O)N[C@H](C(=O)N[C@@H](C)C(=O)N[C@@H](C)C(=O)N[C@@H](CC(C)C)C(=O)NCC(=O)N[C@@H](CCCNC(=N)N)C(=O)N[C@@H](CC(C)C)C(=O)N[C@@H](CO)C(=O)N[C@@H](CCC(=O)O)C(=O)N[C@@H](CCC(=O)O)C(=O)N[C@@H](CC(C)C)C(=O)N[C@@H](Cc1c[nH]cn1)C(=O)N[C@@H](CCC(=O)O)C(=O)N[C@@H](CC(C)C)C(=O)N[C@@H](CCC(N)=O)C(=O)N[C@H](C(=O)N[C@@H](Cc1ccc(O)cc1)C(=O)N1CCC[C@H]1C(=O)N[C@@H](CCCNC(=N)N)C(=O)N[C@H](C(=O)N[C@@H](CCC(=O)O)C(=O)N[C@H](C(=O)NCC(=O)N[C@@H](CO)C(=O)NCC(=O)N[C@H](C(=O)N[C@@H](Cc1ccc(O)cc1)C(N)=O)[C@@H](C)O)[C@@H](C)O)[C@@H](C)O)[C@@H](C)O)[C@@H](C)O
Take B1: in test [1], the “hAmylin-R funct. EC50 (pM), tested with HSA” value (“hAmylin-R funct. EC50 (pM)” for short) was determined as 159 pM. The “hCTR funct. EC50 (pM), tested with HSA” value in test [2] was 57 pM.

B2: [N-terminal(C20 diacid-gGlu), des1, 9V, 15Q, 21Q, 23Y, 30S, 31G, 32T, 33Y]mimylin (peptide)
peptide: {C20 diacid-γGlu}-ASELSTAVLGRLSQELHELQTYPRTETGSGTY-NH2
SMILES: CC(C)C[C@H](NC(=O)[C@H](CCCNC(=N)N)NC(=O)CNC(=O)[C@H](CC(C)C)NC(=O)[C@@H](NC(=O)[C@H](C)NC(=O)[C@@H](NC(=O)[C@H](CO)NC(=O)[C@H](CC(C)C)NC(=O)[C@H](CCC(=O)O)NC(=O)[C@H](CO)NC(=O)[C@H](C)NC(=O)CC[C@H](NC(=O)CCCCCCCCCCCCCCCCCCC(=O)O)C(=O)O)[C@@H](C)O)C(C)C)C(=O)N[C@@H](CO)C(=O)N[C@@H](CCC(N)=O)C(=O)N[C@@H](CCC(=O)O)C(=O)N[C@@H](CC(C)C)C(=O)N[C@@H](Cc1c[nH]cn1)C(=O)N[C@@H](CCC(=O)O)C(=O)N[C@@H](CC(C)C)C(=O)N[C@@H](CCC(N)=O)C(=O)N[C@H](C(=O)N[C@@H](Cc1ccc(O)cc1)C(=O)N1CCC[C@H]1C(=O)N[C@@H](CCCNC(=N)N)C(=O)N[C@H](C(=O)N[C@@H](CCC(=O)O)C(=O)N[C@H](C(=O)NCC(=O)N[C@@H](CO)C(=O)NCC(=O)N[C@H](C(=O)N[C@@H](Cc1ccc(O)cc1)C(N)=O)[C@@H](C)O)[C@@H](C)O)[C@@H](C)O)[C@@H](C)O
Take B2: the “hAmylin-R funct. EC50 (pM)” value in test [1] worked out at 142 pM. Further, the “hCTR funct. EC50 (pM), tested with HSA” value in test [2] was 97 pM.

B3: [N-terminal(C20 diacid-gGlu), des1, 4G, 15T, 21E, 23Y, 30S, 31G, 32T, 33Y]mimylin (peptide)
peptide: {C20 diacid-γGlu}-ASGLSTAALGRLSTELHELETYPRTETGSGTY-NH2
SMILES: CC(C)C[C@H](NC(=O)CNC(=O)[C@H](CO)NC(=O)[C@H](C)NC(=O)CC[C@H](NC(=O)CCCCCCCCCCCCCCCCCCC(=O)O)C(=O)O)C(=O)N[C@@H](CO)C(=O)N[C@H](C(=O)N[C@@H](C)C(=O)N[C@@H](C)C(=O)N[C@@H](CC(C)C)C(=O)NCC(=O)N[C@@H](CCCNC(=N)N)C(=O)N[C@@H](CC(C)C)C(=O)N[C@@H](CO)C(=O)N[C@H](C(=O)N[C@@H](CCC(=O)O)C(=O)N[C@@H](CC(C)C)C(=O)N[C@@H](Cc1c[nH]cn1)C(=O)N[C@@H](CCC(=O)O)C(=O)N[C@@H](CC(C)C)C(=O)N[C@@H](CCC(=O)O)C(=O)N[C@H](C(=O)N[C@@H](Cc1ccc(O)cc1)C(=O)N1CCC[C@H]1C(=O)N[C@@H](CCCNC(=N)N)C(=O)N[C@H](C(=O)N[C@@H](CCC(=O)O)C(=O)N[C@H](C(=O)NCC(=O)N[C@@H](CO)C(=O)NCC(=O)N[C@H](C(=O)N[C@@H](Cc1ccc(O)cc1)C(N)=O)[C@@H](C)O)[C@@H](C)O)[C@@H](C)O)[C@@H](C)O)[C@@H](C)O)[C@@H](C)O
Regarding B3, the “hAmylin-R funct. EC50 (pM)” value in test [1] was found to be 291 pM. Also, the “hCTR funct. EC50 (pM), tested with HSA” value in test [2] is 67 pM.
